# Reference: US20130230453A1, “DIAGNOSIS AND TREATMENT OF BRAIN TUMORS” (Welcome Receptor Antibodies Pty Ltd, priority 2010, published 2013)
# Entries after “also recorded” stand apart in the source; their conditions may differ. No end group written: not given here.
# Legend:
# breast cancer xenograft = settings: mouse xenograft models of breast cancer; administration of calcitonin; cited from earlier work
# T47D = settings: cancer cell lines such as T47D; cited from earlier work
# [1] = target: human calcitonin receptor, endogenous (GBM tissue, A172 glioblastoma cell line) (human) (UniProt P30988); experiment: cell-based or functional assay; settings: scale: log EC50
# CTR [2] = target: T1, CTR (Homo sapiens, UniProt P30988); experiment: Inhibition of phosphorylation of ERK1/2 in GBM cell line A172; format: cell-based; settings: 10^−6M sCT (8-32)
# T1 construct: cMyc; expressed in transfected cells
# T1 sequence (P30988 25-474): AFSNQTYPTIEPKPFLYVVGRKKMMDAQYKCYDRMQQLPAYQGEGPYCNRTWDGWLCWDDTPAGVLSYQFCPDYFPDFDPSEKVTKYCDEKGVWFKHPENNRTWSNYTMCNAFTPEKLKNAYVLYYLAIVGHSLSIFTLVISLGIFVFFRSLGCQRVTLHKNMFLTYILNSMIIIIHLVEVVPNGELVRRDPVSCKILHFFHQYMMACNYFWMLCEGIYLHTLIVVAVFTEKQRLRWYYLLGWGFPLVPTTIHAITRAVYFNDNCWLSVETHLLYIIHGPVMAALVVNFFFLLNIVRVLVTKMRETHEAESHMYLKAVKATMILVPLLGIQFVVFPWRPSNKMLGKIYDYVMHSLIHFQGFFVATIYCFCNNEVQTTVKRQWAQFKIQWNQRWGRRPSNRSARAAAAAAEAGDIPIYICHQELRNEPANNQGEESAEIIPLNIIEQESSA
# Description: FIG. 6. […] (C) is an immunoblot of a crude membrane preparation from the cell line A172 and probed with the anti-CTR antibody MCA2191.
# (§1) The glioblastoma cell line A172 was maintained in DMEM/10% FBS.
# FIG. 6 illustrates the concentration response curves and immunoblot for the GBM cell line A172.
# CTR [3] = target: T1, CTR; experiment: Stimulation of cAMP production (adenylyl cyclase activity) in GBM cell line A172; format: cell-based; settings: 10^−6M sCT (8-32)
# Description: FIG. 6. […]. (C) is an immunoblot of a crude membrane preparation from the cell line A172 and probed with the anti-CTR antibody MCA2191.
# as §1
# FIG. 6 illustrates the concentration response curves and immunoblot for the GBM cell line A172. […]. The stimulation was inhibited by the antagonist 10^−6M sCT (8-32). In immunoblots (C) of whole cell lysates of A172 probed with the anti-CTR antibody MCA2191, there is a minor band that runs with a mobility of ˜70 kD and a major band at 52 kD.
substance,measurement,setting,value
"calcitonin (CGNLSTCMLGTYTQDFNKFHTFPQTAIGVGAP; ends and bridges not checked; cysteine pairing not given here; UniProt P01258 85-116, looked up) [calcitonin (CT), calcitonin receptor agonist]",tumor volume,breast cancer xenograft,significantly reduced
same,cell proliferation,T47D,inhibits cell proliferation
human CT (from UniProt P01258 85-116) (ligand),"log EC50, inhibition of phosphorylation of ERK1/2 in the GBM cell line A172",[1],-10.5
same,"log EC50, stimulation of adenylyl cyclase activity (cAMP production) in the GBM cell line A172",[1],-9.9
sCT (8-32): antagonist (also called inverse agonist) of CTR (VLGKLSQELHKLQTYPRTNTGSGTP),effect on the hCT inhibition of ERK1/2 phosphorylation,CTR [2],inhibited; also recorded: antagonised
same,effect on the hCT stimulation of adenylyl cyclase activity,CTR [3],inhibited
